Data as given in patent US20210379157A1 (UNIVERSITY OF ULSTER, published 2021).
Where no end group is shown, it is not given here. [ ]: non-standard residue; d: D form.

T1: GIP receptor (human, UniProt P48546 22-466)
T1 sequence (looked up): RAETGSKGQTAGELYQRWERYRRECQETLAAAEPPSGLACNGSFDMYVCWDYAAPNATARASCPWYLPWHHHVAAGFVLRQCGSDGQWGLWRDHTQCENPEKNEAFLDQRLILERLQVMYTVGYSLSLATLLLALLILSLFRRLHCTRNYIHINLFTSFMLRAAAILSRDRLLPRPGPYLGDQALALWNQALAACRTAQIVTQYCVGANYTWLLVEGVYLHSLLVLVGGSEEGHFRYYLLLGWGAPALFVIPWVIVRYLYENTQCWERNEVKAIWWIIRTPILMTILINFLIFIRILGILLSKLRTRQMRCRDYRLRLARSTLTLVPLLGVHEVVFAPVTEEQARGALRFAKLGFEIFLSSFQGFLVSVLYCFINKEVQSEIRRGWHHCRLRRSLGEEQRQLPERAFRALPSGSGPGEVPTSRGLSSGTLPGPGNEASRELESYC

B1: (DAla2)GIP/xenin-8-Gln(L-Glu) (peptide)
peptide: Y[dA]EGTFISDYSIAMHPQQPWILGAAEEEEEE
B2: (DAla2)GIP/xenin-8-Gln(L-Asp) (peptide)
peptide: Y[dA]EGTFISDYSIAMHPQQPWILGAADDDDDD
B3: (DAla2)GIP/xenin-8-Gln (peptide)
peptide: Y[dA]EGTFISDYSIAMHPQQPWIL

Biological target: T1, GIP receptor
Assay: cell-based or functional assay

Row | Binder | cAMP production in SaOS-2 cells, lowest effective concentration [nM]
1 | B1 | 1000
2 | B2 | 10
3 | B3 | 0.1
